Values quoted from earlier work in publication PMC7246992.
Like-named read-outs stand apart in the source and are kept apart here.

Key:
[1] = molecular target: linear ubiquitin (Homo sapiens) (UniProt P0CG48)
[2] = molecular target: linear ubiquitin (Homo sapiens) (UniProt P0CG48); remark: listed apart in the source

Chain of optineurin UBAN (Q96CV9 416-510): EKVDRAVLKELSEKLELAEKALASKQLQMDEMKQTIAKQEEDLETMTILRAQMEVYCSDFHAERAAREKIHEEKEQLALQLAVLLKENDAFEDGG
Chain of A20 ZF7 (P21580 756-790): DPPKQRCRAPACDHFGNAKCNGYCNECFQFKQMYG

Kd [1] | Kd [2] | Substance
9 µM | – | A20 ZF7 (from UniProt P21580)
– | 1 µM | optineurin UBAN (from UniProt Q96CV9)
